# Measurements from PMC8564726, “Heterodimerization of H3K9 histone methyltransferases G9a and GLP activates methyl reading and writing capabilities” (The Journal of Biological Chemistry, 2021).
# B1: GLP ANK-SET homodimer (complex)
# chain: QEKSLAAEGRADTTTGSIAGAPEDERSQSTAPQAPECFDPAGPAGLVRPTSGLSQGPGKETLESALIALDSEKPKKLRFHPKQLYFSARQGELQKVLLMLVDGIDPNFKMEHQSKRSPLHAAAEAGHVDICHMLVQAGANIDTCSEDQRTPLMEAAENNHLDAVKYLIKAGAQVDPKDAEGSTCLHLAAKKGHYDVVQYLLSNGQMDVNCQDDGGWTPMIWATEYKHVELVKLLLSKGSDINIRDNEENICLHWAAFSGCVDIAEILLAAKCDLHAVNIHGDSPLHIAARENRYDCVVLFLSRDSDVTLKNKEGETPLQCASLSSQVWSALQMSKALRDSAPDKPVAVEKTVSRDIARGYERIPIPCVNAVDSELCPTNYKYVSQNCVTSPMNIDRNITHLQYCVCVDDCSSSTCMCGQLSMRCWYDKDGRLLPEFNMAEPPLIFECNHACSCWRNCRNRVVQNGLRARLQLYRTQDMGWGVRSLQDIPLGTFVCEYVGELISDSEADVREEDSYLFDLDNKDGEVYCIDARFYGNVSRFINHHCEPNLVPVRVFMSHQDLRFPRIAFFSTRLIQAGEQLGFDYGERFWDVKGKLFSCRCGSSKCRHSSAALAQRQASAAQEPQENGLPDTSSAAAADPL
# modifications: not checked
# B2: G9a-GLP ANK-SET heterodimer (complex)
# chain 1: DAPGRADTSQPSARMRGHGEPRRPPCDPLADTIDSSGPSLTLPNGGCLSAVGLPPGPGREALEKALVIQESERRKKLRFHPRQLYLSVKQGELQKVILMLLDNLDPNFQSDQQSKRTPLHAAAQKGSVEICHVLLQAGANINAVDKQQRTPLMEAVVNNHLEVARYMVQLGGCVYSKEEDGSTCLHHAAKIGNLEMVSLLLSTGQVDVNAQDSGGWTPIIWAAEHKHIDVIRMLLTRGADVTLTDNEENICLHWASFTGSAAIAEVLLNAQCDLHAVNYHGDTPLHIAARESYHDCVLLFLSRGANPELRNKEGDTAWDLTPERSDVWFALQLNRKLRLGVGNRAVRTEKIICRDVARGYENVPIPCVNGVDGEPCPEDYKYISENCETSTMNIDRNITHLQHCTCVDDCSSSNCLCGQLSIRCWYDKDGRLLQEFNKIEPPLIFECNQACSCWRSCKNRVVQSGIKVRLQLYRTAKMGWGVRALQTIPQGTFICEYVGELISDAEADVREDDSYLFDLDNKDGEVYCIDARYYGNISRFINHLCDPNIIPVRVFMLHQDLRFPRIAFFSSRDIRTGEELGFDYGDRFWDIKSKYFTCQCGSEKCKHSAEAIALEQSRLARLDPHPELLPDLSSLPPINT
# chain 2: B1 chain
# modifications: not checked
# B3: GLP ANK-SET, tags removed (domain or fragment)
# chain: B1 chain
# modifications: not checked
# B4: N-terminally Maltose-Binding Protein tagged GLP ANK-SET (domain or fragment)
# chain: B1 chain
# modifications: not checked
# B5: G9a ANK-SET homodimer (complex)
# chain: B2 chain 1
# modifications: not checked
# B6: N-terminally Maltose-Binding Protein tagged G9a ANK-SET (domain or fragment)
# chain: B2 chain 1
# Assays:
# [1] = molecular target: unmethylated mononucleosome (H3K9me0), 147 bp 601 DNA 5'-fluorescein-labeled; experiment: fluorescence polarisation; core mononucleosomes (147 bp 601 DNA, 5' fluorescein) at 150 nM, enzyme titrated; 100 mM Tris pH 8, 100 mM KCl, 1 mM MgCl2, 20 μM ZnSO4, 10 mM BME, 0.1% NP-40
# [2] = molecular target: fluoresceinated H3(1-20) K9me2 peptide, P68431; experiment: fluorescence polarisation; fluoresceinated H3(1-20) K9me1 or K9me2 peptide at 150 nM, enzyme titrated; 100 mM Tris pH 8, 100 mM KCl, 1 mM MgCl2, 20 μM ZnSO4, 10 mM BME, 0.1% NP-40
# [3] = molecular target: G9a ANK-SET, tags removed; experiment: SEC-MALS; His and MBP tags removed; injected at 10 μM, Shodex KW804 column, 0.4 ml per minute
# [4] = molecular target: N-terminally 6xHis-tagged G9a ANK-SET; experiment: pull-down; His:G9a coexpressed with MBP:G9a or MBP:GLP in E. coli; sequential cobalt and amylose resin purification; SyPRO Red stained bands quantified
Binder,Kd [1],stoichiometry N (MBP protein per His:G9a) [4],further results
B1,26.3 µM,–,fold reduction of binding (reference not clearly named) [2]: 12.5 times
B2,6 to 7 µM,–,–
B3,–,–,stoichiometry N [3]: 1 GLP per G9a
B4,–,1,–
B5,6 to 7 µM,–,–
B6,–,1,–
